These are literature values, as cited in article PMC5519506 (Molecular pharmaceutics, 2016).

Where two headings read alike, the source gives them in different places.

The conditions of series [1]: fibronectin; ref [28]; cited from earlier work.
The subject of another series is EGFR^high tumor. The note with it: ref [28], cited from earlier work; for tumor:muscle ratio / tumor:blood ratio: fibronectin.

For fibronectin, the clearance half-time in series [1] was 2.1 ± 0.3 min. For the same substance, the tumor accumulation in the series with EGFR^high tumor (1 h, second of two values) is reported as 2.4 ± 1.0 %ID/g; in the series on EGFR^high tumor (1 h) it was 3.4 ± 1.0 %ID/g. In addition, the “tumor:muscle ratio” value is reported as 8.6 ± 3.0 in the series on EGFR^high tumor (1 h, PET); 10 ± 4 in the series on EGFR^high tumor (1 h, excised tissue); 4.2 ± 1.3 in the series on EGFR^high tumor (4 h, excised tissue). Further, the “tumor:blood ratio” value is 8.9 ± 4.7 with EGFR^high tumor (1 h) and 6.4 ± 4.3 in the series with EGFR^high tumor (4 h).
